{"source": "paper doi:10.1101/2022.06.02.494603", "about": "(bioRxiv, 2022)", "binders": {"B1": {"name": "TBK1 T4A, untagged (natural protein, human, UniProt Q9UHD2 1-729, looked up)", "chain": "MQSASNHLWLLSDILGQGATANVFRGRHKKTGDLFAIKVFNNISFLRPVDVQMREFEVLKKLNHKNIVKLFAIEEETTTRHKVLIMEFCPCGSLYTVLEEPSNAYGLPESEFLIVLRDVVGGMNHLRENGIVHRDIKPGNIMRVIGEDGQSVYKLTDFGAARELEDDEQFVSLYGTEEYLHPDMYERAVLRKDHQKKYGATVDLWSIGVTFYHAATGSLPFRPFEGPRRNKEVMYKIITGKPSGAISGVQKAENGPIDWSGDMPVSCSLSRGLQVLLTPVLANILEADQEKCWGFDQFFAETSDILHRMVIHVFSLQQMTAHKIYIHSYNTATIFHELVYKQTKIISSNQELIYEGRRLVLEPGRLAQHFPKTTEENPIFVVSREPLNTIGLIYEKISLPKVHPRYDLDGDASMAKAITGVVCYACRIASTLLLYQELMRKGIRWLIELIKDDYNETVHKKTEVVITLDFCIRNIEKTVKVYEKLMKINLEAAELGEISDIHTKLLRLSSSQGTIETSLQDIDSRLSPGGSLADAWAHQEGTHPKDRNVEKLQVLLNCMTEIYYQFKKDKAERRLAYNEEQIHKFDKQKLYYHATKAMTHFTDECVKKYEAFLNKSEEWIRKMLHLRKQLLSLTNQCFDIEEEVSKYQEYTNELQETLPQKMFTASSGIKHTMTPIYPSSNTLVEMTLGMKKLKEEMEGVVKELAENNHILERFGSLTMDGGLRNVDCL"}}, "target": "optineurin, C-terminal myc-FLAG-tagged (UniProt Q96CV9 1-577)", "sequence (Q96CV9 whole entry)": "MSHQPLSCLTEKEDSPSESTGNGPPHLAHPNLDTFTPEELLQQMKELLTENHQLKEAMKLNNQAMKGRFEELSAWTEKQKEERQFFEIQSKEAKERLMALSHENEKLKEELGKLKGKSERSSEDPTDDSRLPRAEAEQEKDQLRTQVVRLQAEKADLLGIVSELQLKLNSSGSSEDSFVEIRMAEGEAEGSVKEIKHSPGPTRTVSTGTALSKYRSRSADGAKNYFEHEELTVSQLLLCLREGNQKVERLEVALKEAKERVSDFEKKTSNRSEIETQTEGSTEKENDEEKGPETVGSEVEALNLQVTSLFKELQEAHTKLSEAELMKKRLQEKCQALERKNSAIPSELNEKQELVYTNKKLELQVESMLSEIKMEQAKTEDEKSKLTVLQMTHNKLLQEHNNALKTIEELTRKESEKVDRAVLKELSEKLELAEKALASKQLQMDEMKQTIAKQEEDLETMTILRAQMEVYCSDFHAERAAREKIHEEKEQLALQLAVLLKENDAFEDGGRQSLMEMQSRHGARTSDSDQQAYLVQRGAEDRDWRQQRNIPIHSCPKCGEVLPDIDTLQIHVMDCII", "experiment": "co-IP", "data": [{"binder": "B1", "values": [{"measurement": "TBK1 bound to OPTN relative to wild type", "value": "1.93 relative to TBK1 WT"}]}]}
